What was measured:
Format in all cases: biochemical
Human plasma thrombin [1] = molecular target: T1, Human plasma thrombin (Homo sapiens, UniProt P00734); assay: Assay for thrombin inhibitory activity (Example 25); conditions: final concentration up to ×10^-5 M; enzyme 3 × 10^-9 M
T1 construct: (5) Human plasma thrombin (Kabi, Daiichi Kagaku Yakuhin); purchased Kabi (via Daiichi Kagaku Yakuhin); host or cells: human plasma
Protocol: (§1) F. Human plasma thrombin (Sigma)
Buffer: Buffer solution for each enzyme is as follow. Thrombin and FXa: 50 mM Tris-HCl, 7.5 mM EDTA-2Na, 175 mM NaCl (pH 8.4) […]
(§2) Substrate solution: for the enzymes F, G, H and I, the following substrate f, g, h or i, respectively, was dissolved to a final concentration shown in Table 14.
(§3) f. H.D-Phe-Pip-Arg-pNA (Kabi Vitrum)
(§4) To wells of an ELISA 96-well microtiter plate, were added a solution of (Arg^59 -Ala^107) SLPI obtained in Example 23 and then the enzyme solution, and the mixture was incubated at 37° C. for 10 minutes. Next, the substrate solution was added to develop the color, whose absorption was then measured at 405 nm. As a control, SLPI was used.

Porcine FXa = assay: Assay for Fxa inhibitory activity (Example 36); conditions: final concentration up to ×10^-5 M; enzyme 1.0 × 10^-8 M
Protocol: I. Porcine FXa (Daichi Seiyaku)
(§5) Thrombin and FXa: 50 mM Tris-HCl, 7.5 mM EDTA-2Na, 175 mM NaCl (pH 8.4) […]
(§6) Substrate solution: for the enzymes F, G, H and I, the following substrate f, g, h or i, respectively, was dissolved to a final concentration shown in Table 24.
i. Ratio 1:1 mixture of the following compounds: [drawing 6]
as §4, with “(Arg^58” for “(Arg^59”, “34” for “23”

[2] = molecular target: T2, polymorphonuclear leucocyte elastase from human sputum (Homo sapiens, UniProt P08246); assay: Assay for elastase inhibitor activity (Example 24); conditions: enzyme 2 × 10^-8 M, substrate 3.0 × 10^-4 M
T2 construct: Polymorphonuclear leukocyte elastase from human sputum (EPC Co; Funakoshi Yakuhin); purchased EPC Co. (via Funakoshi Yakuhin); host or cells: human sputum
T2 sequence (P08246 30-267): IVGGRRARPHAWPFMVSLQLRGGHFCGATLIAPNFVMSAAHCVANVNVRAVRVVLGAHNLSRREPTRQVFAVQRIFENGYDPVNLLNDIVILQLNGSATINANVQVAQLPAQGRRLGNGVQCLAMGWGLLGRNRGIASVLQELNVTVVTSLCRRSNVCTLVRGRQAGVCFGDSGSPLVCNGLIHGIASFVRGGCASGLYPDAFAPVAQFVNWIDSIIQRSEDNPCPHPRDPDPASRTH
Protocol: (§7) The following assay method was used.
(§8) Buffer: 0.1M (2-hydroxyethyl)piperazine-N'-2-ethansulfonic acid (HEPES), 0.5M NaCl, pH 7.5.
(§9) Enzyme concentration: the following enzyme was dissolved in the above-mentioned buffer to a concentration 9 times that shown in Table 12.
A. Polymorphonuclear leucocyte elastase from human sputum (EPC Co., Funakoshi Yakuhin)
Substrate solution: for the enzymes A, B, C, D and E, the following substrate a, b, c, d or e, respectively, was dissolved in a solution of DMSO+the above-mentioned buffer (1:9) (note, final concentration of DMSO was 10% in the buffer) to a concentration of 9 times that shown in Table 12.
a. MeO-Suc-Ala-Ala-Pro-Val-pNA (Bachem) […]
(§10) To wells of an ELISA 96-well microtiter plate, were added 120 μl of the buffer and the 20 μl of a sample solution of (Arg^59 -Ala^107) SLPI obtained in Example 23, followed by 20 μl of the enzyme solution. The mixture was reacted at 37° C. for 10 minutes. Next, 20 μl of the substrate was added, and developed at 37° C. The developed color was measured by absorption at 405 nm.
(§11) As a control the same procedure was carried out using SLPI.

Human plasma kallikrein [3] = molecular target: T3, Human plasma kallikrein (Homo sapiens, UniProt P03952); assay: Assay for kallikrein inhibitory activity (Example 25); conditions: final concentration up to ×10^-5 M; enzyme 1.0 × 10^-7 M
T3 construct: (7) Human plasma kallikrein (Kabi, Daiichi Kagaku Yakuhin); purchased Kabi (via Daiichi Kagaku Yakuhin); host or cells: human plasma
Protocol: (§12) H. Human plasma kallikrein (Protogene, Funakoshi Yakuhin)
Kallikrein: 50 mM Tris-HCl, 361 mM NaCl, 0.01 mg/ml polybrene (pH 7.8) […]
as §2
(§13) h. H.D-Pro-Phe-Arg-pNA (Kabi Vitram)
as §4

Human plasma plasmin [4] = molecular target: T4, Human plasma plasmin (Homo sapiens, UniProt P00747); assay: Assay for plasmin inhibitory activity (Example 25); conditions: final concentration up to ×10^-5 M; enzyme 1.0 × 10^-7 M
T4 construct: (6) Human plasma plasmin (Kabi, Daiichi Kagaku Yakuhin); purchased Kabi (via Daiichi Kagaku Yakuhin); host or cells: human plasma
Protocol: (§14) G. Human plasma plasmin (sigma)
(§15) Plasmin: 50 mM Tris-HCl, 100 mM NaCl (pH 7.4) […]
as §2
(§16) g. H.D-Val-Leu-Lys-pNA (Kabi Vitrum)
as §4

Human plasma kallikrein [5] = molecular target: T3, Human plasma kallikrein; assay: Assay for kallikrein inhibitory activity (Example 36); conditions: final concentration up to ×10^-5 M; enzyme 1.0 × 10^-7 M
Protocol: as §12
Kallikrein: 50 mM Tris-HCl, 361 mM NaCl, 0.01 mg/ml Polybrene (pH 7.8) […]
as §6, §13
as §4, with “(Arg^58” for “(Arg^59”, “34” for “23”

Bovine spleen trypsin = molecular target: T5, Bovine spleen trypsin (Bos taurus, UniProt P00760); assay: Assay for trypsin inhibitor activity (Example 24); conditions: enzyme 2 × 10^-7 M, substrate 1.0 × 10^-3 M
T5 construct: purchased Sigma
T5 sequence (P00760 24-246): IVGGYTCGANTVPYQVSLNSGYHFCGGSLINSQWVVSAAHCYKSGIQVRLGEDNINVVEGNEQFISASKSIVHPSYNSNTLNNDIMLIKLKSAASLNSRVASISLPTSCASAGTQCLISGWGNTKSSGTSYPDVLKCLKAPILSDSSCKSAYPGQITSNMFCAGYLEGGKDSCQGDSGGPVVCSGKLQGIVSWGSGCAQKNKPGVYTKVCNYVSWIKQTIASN
Protocol: as §7, §8, §9
B. Bovine spleen trypsin (Sigma)
Substrate solution: for the enzymes A, B, C, D and E, the following substrate a, b, c, d or e, respectively, was dissolved in a solution of DMSO+the above-mentioned buffer (1:9) (note, final concentration of DMSO was 10% in the buffer) to a concentration of 9 times that shown in Table 12. […]
as §10, §11

Human plasma thrombin [6] = molecular target: T1, Human plasma thrombin; assay: Assay for thrombin inhibitory activity (Example 36); conditions: final concentration up to ×10^-5 M; enzyme 3 × 10^-9 M
Protocol: as §1, §5, §6, §3
as §4, with “(Arg^58” for “(Arg^59”, “34” for “23”

Human plasma plasmin [7] = molecular target: T4, Human plasma plasmin; assay: Assay for plasmin inhibitory activity (Example 36); conditions: final concentration up to ×10^-5 M; enzyme 1.0 × 10^-7 M
Protocol: as §14, §15, §6, §16
as §4, with “(Arg^58” for “(Arg^59”, “34” for “23”

T3 sequence (P03952 391-638 limits assumed): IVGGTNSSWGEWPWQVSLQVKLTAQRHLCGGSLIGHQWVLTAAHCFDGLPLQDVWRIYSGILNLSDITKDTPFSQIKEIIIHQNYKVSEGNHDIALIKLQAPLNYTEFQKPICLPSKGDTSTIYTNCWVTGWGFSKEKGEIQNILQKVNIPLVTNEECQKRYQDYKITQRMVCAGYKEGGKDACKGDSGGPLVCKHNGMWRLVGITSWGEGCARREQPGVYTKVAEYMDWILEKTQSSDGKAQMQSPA
T3 sequence (P03952 20-390 partner limits assumed): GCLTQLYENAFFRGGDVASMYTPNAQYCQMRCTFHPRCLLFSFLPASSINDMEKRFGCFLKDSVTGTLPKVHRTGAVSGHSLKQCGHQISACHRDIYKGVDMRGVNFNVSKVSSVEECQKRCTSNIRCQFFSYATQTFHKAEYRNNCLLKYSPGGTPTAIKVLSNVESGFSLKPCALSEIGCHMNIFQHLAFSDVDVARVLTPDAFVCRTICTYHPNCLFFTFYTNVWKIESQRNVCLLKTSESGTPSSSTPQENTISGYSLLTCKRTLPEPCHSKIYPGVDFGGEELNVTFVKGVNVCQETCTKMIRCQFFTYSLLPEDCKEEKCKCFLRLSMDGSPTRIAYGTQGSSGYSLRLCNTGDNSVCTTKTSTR
T4 sequence (P00747 581-810 limits assumed): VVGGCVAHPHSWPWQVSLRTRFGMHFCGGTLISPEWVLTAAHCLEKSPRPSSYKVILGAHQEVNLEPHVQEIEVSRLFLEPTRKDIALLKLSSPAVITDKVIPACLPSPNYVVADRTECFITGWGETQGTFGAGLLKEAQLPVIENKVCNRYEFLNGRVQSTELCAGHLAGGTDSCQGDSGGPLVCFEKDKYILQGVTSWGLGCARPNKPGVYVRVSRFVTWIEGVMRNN
T4 sequence (P00747 97-580 partner limits assumed): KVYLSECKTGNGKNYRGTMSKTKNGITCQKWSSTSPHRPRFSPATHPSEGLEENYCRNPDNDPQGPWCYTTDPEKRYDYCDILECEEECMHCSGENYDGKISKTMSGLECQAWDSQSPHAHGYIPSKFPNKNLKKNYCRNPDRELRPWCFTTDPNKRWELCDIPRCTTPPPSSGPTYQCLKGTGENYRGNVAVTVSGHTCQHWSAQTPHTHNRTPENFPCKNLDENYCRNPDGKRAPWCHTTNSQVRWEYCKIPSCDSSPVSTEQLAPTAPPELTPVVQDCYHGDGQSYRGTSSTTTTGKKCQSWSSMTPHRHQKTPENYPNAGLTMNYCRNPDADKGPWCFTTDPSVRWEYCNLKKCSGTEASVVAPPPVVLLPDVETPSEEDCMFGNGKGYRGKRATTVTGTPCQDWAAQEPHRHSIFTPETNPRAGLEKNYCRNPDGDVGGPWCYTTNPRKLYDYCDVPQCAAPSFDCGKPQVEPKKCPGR

- inhibitory activity to thrombin (Human plasma thrombin [1]): did not exhibit inhibitory activity
- IC50 [2]: 13 nM
- inhibitory activity to kallikrein (Human plasma kallikrein [3]): did not exhibit inhibitory activity
- inhibitory activity to plasmin (Human plasma plasmin [4]): did not exhibit inhibitory activity
- inhibitory activity to kallikrein (Human plasma kallikrein [5]): did not exhibit inhibitory activity
- IC50 (Bovine spleen trypsin): 330 nM
- inhibitory activity to thrombin (Human plasma thrombin [6]): did not exhibit inhibitory activity
- inhibitory activity to plasmin (Human plasma plasmin [7]): did not exhibit inhibitory activity
B1: SLPI: Human secretory leukoprotease inhibitor; recombinant SLPI of Reference Example 1 used as control (protein)
chain: SGKSFKAGVCPPKKSAQCLRYKKPECQSDWQCPGKKRCCPDTCGIKCLDPVDTPNPTRRKPGKCPVTYGQCLMLNPPNFCEMDGQCKRDLKCCMGMCGKSCVSPVKA
- inhibitory activity to FXa (Porcine FXa): did not exhibit inhibitory activity
